Laboratory results from the array DNA melting data of Ke et al..

Assay: melting temperature; melt of duplexes
Conditions: sodium 0.0675 M; strand 1 µM

Substance	Tm [°C]
CGACGTGCTAAATGTGCTG+CAGCACATGCAGCACGTCG (((((((((..((((((((+))))))))..)))))))))	55.2
CGACGTGCCGTATGTGCTG+CAGCACATTAAGCACGTCG ((((((((...((((((((+))))))))...))))))))	49.1
CGACGTGCACAATGTGCTG+CAGCACATTGAGCACGTCG ((((((((.((((((((((+)))))))))).))))))))	56.9
CGACGTGCGTAATGTGCTG+CAGCACATCAAGCACGTCG ((((((((.(.((((((((+)))))))).).))))))))	53.4
CGACGTGCTAGATGTGCTG+CAGCACATGCTGCACGTCG ((((((((...((((((((+))))))))...))))))))	49.3
CGACGTGCAAGATGTGCTG+CAGCACATATAGCACGTCG ((((((((.(.((((((((+)))))))).).))))))))	52
CGACGTGCCCGATGTGCTG+CAGCACATAAGGCACGTCG (((((((((..((((((((+))))))))..)))))))))	54.5
CGACGTGCAGTATGTGCTG+CAGCACATTTAGCACGTCG ((((((((...((((((((+))))))))...))))))))	48.6
CGACGTGCCACATGTGCTG+CAGCACATACCGCACGTCG ((((((((...((((((((+))))))))...))))))))	46.7
CGACGTGCTCCATGTGCTG+CAGCACATAGGGCACGTCG ((((((((.(.((((((((+)))))))).).))))))))	52.3
CGACGTGCCGCATGTGCTG+CAGCACATGGAGCACGTCG ((((((((..(((((((((+)))))))))..))))))))	55.1
CGACGTGCTGTATGTGCTG+CAGCACATGTAGCACGTCG (((((((((..((((((((+))))))))..)))))))))	53.3
CGACGTGCTACATGTGCTG+CAGCACATCGGGCACGTCG ((((((((...((((((((+))))))))...))))))))	49.5
CGACGTGCACCATGTGCTG+CAGCACATCGAGCACGTCG ((((((((.(.((((((((+)))))))).).))))))))	45.7
CGACGTGCACCATGTGCTG+CAGCACATCCTGCACGTCG (((((((((..((((((((+))))))))..)))))))))	44.7
CGACGTGCCGCATGTGCTG+CAGCACATCTCGCACGTCG ((((((((...((((((((+))))))))...))))))))	47.8
CGACGTGCAACATGTGCTG+CAGCACATGTTGCACGTCG (((((((((((((((((((+)))))))))))))))))))	64.5
CGACGTGCATCATGTGCTG+CAGCACATTCAGCACGTCG ((((((((...((((((((+))))))))...))))))))	47.8
CGACGTGCTCTATGTGCTG+CAGCACATGAAGCACGTCG (((((((((..((((((((+))))))))..)))))))))	53
CGACGTGCCATATGTGCTG+CAGCACATCCCGCACGTCG ((((((((...((((((((+))))))))...))))))))	46.9
CGACGTGCACTATGTGCTG+CAGCACATAACGCACGTCG ((((((((..(((((((((+)))))))))..))))))))	46.2
CGACGTGCGACATGTGCTG+CAGCACATCACGCACGTCG (((((((((..((((((((+))))))))..)))))))))	52.7
CGACGTGCGCAATGTGCTG+CAGCACATCGGGCACGTCG ((((((((.(.((((((((+)))))))).).))))))))	52.7
CGACGTGCATCATGTGCTG+CAGCACATATCGCACGTCG ((((((((...((((((((+))))))))...))))))))	47.4

Substance	Tm [°C]
CGACGTGCCGAATGTGCTG+CAGCACATACGGCACGTCG ((((((((((.((((((((+)))))))).))))))))))	60.1
CGACGTGCACTATGTGCTG+CAGCACATGAGGCACGTCG ((((((((...((((((((+))))))))...))))))))	47.5
CGACGTGCCCTATGTGCTG+CAGCACATCCAGCACGTCG ((((((((...((((((((+))))))))...))))))))	47.7
CGACGTGCGGAATGTGCTG+CAGCACATCCCGCACGTCG ((((((((((.((((((((+)))))))).))))))))))	60.3
CGACGTGCAACATGTGCTG+CAGCACATCATGCACGTCG (((((((((..((((((((+))))))))..)))))))))	49
CGACGTGCTCGATGTGCTG+CAGCACATATCGCACGTCG ((((((((...((((((((+))))))))...))))))))	47.8
CGACGTGCCGTATGTGCTG+CAGCACATGACGCACGTCG ((((((((...((((((((+))))))))...))))))))	47.8
CGACGTGCTGCATGTGCTG+CAGCACATTTGGCACGTCG ((((((((...((((((((+))))))))...))))))))	49.1
CGACGTGCTTAATGTGCTG+CAGCACATAGAGCACGTCG (((((((((..((((((((+))))))))..)))))))))	53.1
CGACGTGCCCGATGTGCTG+CAGCACATCAAGCACGTCG ((((((((..(((((((((+)))))))))..))))))))	52.8
CGACGTGCGACATGTGCTG+CAGCACATCTGGCACGTCG ((((((((.(.((((((((+)))))))).).))))))))	49
CGACGTGCACTATGTGCTG+CAGCACATAGCGCACGTCG ((((((((.((((((((((+)))))))))).))))))))	54.8
CGACGTGCCAAATGTGCTG+CAGCACATGCTGCACGTCG ((((((((...((((((((+))))))))...))))))))	48.2
CGACGTGCCGTATGTGCTG+CAGCACATATAGCACGTCG ((((((((..(((((((((+)))))))))..))))))))	52.1
CGACGTGCTCTATGTGCTG+CAGCACATGGCGCACGTCG ((((((((.(.((((((((+)))))))).).))))))))	51.6
CGACGTGCCGTATGTGCTG+CAGCACATTATGCACGTCG ((((((((...((((((((+))))))))...))))))))	48.6
CGACGTGCGAGATGTGCTG+CAGCACATCGCGCACGTCG (((((((((.(((((((((+))))))))).)))))))))	62.5
CGACGTGCAGCATGTGCTG+CAGCACATGGGGCACGTCG ((((((((..(((((((((+)))))))))..))))))))	56.9
CGACGTGCGGAATGTGCTG+CAGCACATAGCGCACGTCG (((((((((..((((((((+))))))))..)))))))))	55.5
CGACGTGCGAAATGTGCTG+CAGCACATGGGGCACGTCG ((((((((...((((((((+))))))))...))))))))	52
CGACGTGCGAAATGTGCTG+CAGCACATTGGGCACGTCG ((((((((..(((((((((+)))))))))..))))))))	54.5
CGACGTGCCCGATGTGCTG+CAGCACATATGGCACGTCG (((((((((..((((((((+))))))))..)))))))))	54
CGACGTGCAACATGTGCTG+CAGCACATATAGCACGTCG ((((((((.(.((((((((+)))))))).).))))))))	49.1
CGACGTGCTGCATGTGCTG+CAGCACATAGAGCACGTCG (((((((((..((((((((+))))))))..)))))))))	52.3

Substance	Tm [°C]
CGACGTGCCAAATGTGCTG+CAGCACATGAAGCACGTCG ((((((((...((((((((+))))))))...))))))))	51.2
CGACGTGCGAGATGTGCTG+CAGCACATGACGCACGTCG (((((((((..((((((((+))))))))..)))))))))	53.2
CGACGTGCCGGATGTGCTG+CAGCACATGGTGCACGTCG ((((((((...((((((((+))))))))...))))))))	47
CGACGTGCGGGATGTGCTG+CAGCACATGTCGCACGTCG (((((((((..((((((((+))))))))..)))))))))	57.8
CGACGTGCCTCATGTGCTG+CAGCACATAAGGCACGTCG ((((((((((.((((((((+)))))))).))))))))))	56.2
CGACGTGCGGAATGTGCTG+CAGCACATGGGGCACGTCG ((((((((...((((((((+))))))))...))))))))	52.9
CGACGTGCGGGATGTGCTG+CAGCACATGCGGCACGTCG ((((((((.(.((((((((+)))))))).).))))))))	55.4
CGACGTGCTATATGTGCTG+CAGCACATCCTGCACGTCG ((((((((...((((((((+))))))))...))))))))	48.3
CGACGTGCGACATGTGCTG+CAGCACATTATGCACGTCG ((((((((...((((((((+))))))))...))))))))	50.1
CGACGTGCGCGATGTGCTG+CAGCACATTTCGCACGTCG (((((((((..((((((((+))))))))..)))))))))	53.5
CGACGTGCCACATGTGCTG+CAGCACATAAGGCACGTCG (((((((((..((((((((+))))))))..)))))))))	54
CGACGTGCGGAATGTGCTG+CAGCACATTATGCACGTCG ((((((((..(((((((((+)))))))))..))))))))	55.4
CGACGTGCCATATGTGCTG+CAGCACATAAGGCACGTCG (((((((((.(((((((((+))))))))).)))))))))	56.9
CGACGTGCAGGATGTGCTG+CAGCACATACAGCACGTCG ((((((((.(.((((((((+)))))))).).))))))))	55
CGACGTGCGGTATGTGCTG+CAGCACATGATGCACGTCG ((((((((...((((((((+))))))))...))))))))	52.2
CGACGTGCCCCATGTGCTG+CAGCACATCACGCACGTCG ((((((((...((((((((+))))))))...))))))))	45.7
CGACGTGCTAGATGTGCTG+CAGCACATTCTGCACGTCG ((((((((...((((((((+))))))))...))))))))	52.2
CGACGTGCAACATGTGCTG+CAGCACATGTCGCACGTCG ((((((((.((((((((((+)))))))))).))))))))	57.8
CGACGTGCTACATGTGCTG+CAGCACATATGGCACGTCG ((((((((.(.((((((((+)))))))).).))))))))	51.3
CGACGTGCACCATGTGCTG+CAGCACATTTGGCACGTCG ((((((((...((((((((+))))))))...))))))))	44.6
CGACGTGCCGGATGTGCTG+CAGCACATTCCGCACGTCG ((((((((.(.((((((((+)))))))).).))))))))	54
CGACGTGCATTATGTGCTG+CAGCACATGGTGCACGTCG (((((((((..((((((((+))))))))..)))))))))	51.8
CGACGTGCCTAATGTGCTG+CAGCACATGCGGCACGTCG (((((((((..((((((((+))))))))..)))))))))	53.3
CGACGTGCATTATGTGCTG+CAGCACATTGAGCACGTCG ((((((((...((((((((+))))))))...))))))))	49.5
